Data from patent US20230357429A1 (JANUX THERAPEUTICS, published 2023).
Like-named read-outs stand apart in the source and are kept apart here. Where no end group is shown, it is not given here.

What was measured:
[1] = target: T1, TBD-1 wt; assay: competition ELISA: peptide titrated and pre-incubated with a constant concentration of TBD-1, then added to plate-bound biotinylated TROP2; blocked ligand TROP2 (2.m7)
T1 construct: Fab; the heavy chain entry is VH-CH1; also called wild-type anti-TROP2 Fab (hRS7); TROP2 Fab

[2] = target: T2, Human TROP2 ECD (31-274 AA), biotinylated (human, UniProt P09758 31-274, biotinylated (site not stated)); assay: ELISA on immobilized TROP2
T2 construct: also called tumor-associated calcium signal transducer 2; Human TROP2-biotin
T2 sequence: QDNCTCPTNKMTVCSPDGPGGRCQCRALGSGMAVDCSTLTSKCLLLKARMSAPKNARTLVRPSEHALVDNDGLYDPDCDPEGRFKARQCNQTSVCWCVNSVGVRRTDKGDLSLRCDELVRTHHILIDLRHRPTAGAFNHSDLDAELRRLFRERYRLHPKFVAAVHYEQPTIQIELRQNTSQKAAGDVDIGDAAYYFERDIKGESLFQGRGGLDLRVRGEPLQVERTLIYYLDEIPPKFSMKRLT

[3] = target: T2, Human TROP2 ECD (31-274 AA), …; assay: ELISA on immobilized TROP2; remark: listed apart in the source
[4] = target: T3, TCE-31 (anti-CD3 scFv W238A; anti-TROP2 wt); assay: competition ELISA, TCE on captured CD3
T3 construct: scFv on the Fab heavy chain; also called TCE-31 (W238A)

[5] = target: T4, TCE-33 (anti-CD3 scFv F240A; anti-TROP2 wt); assay: competition ELISA, TCE on captured CD3
T4 construct: scFv on the Fab heavy chain; also called TCE-33 (F240A)

[6] = target: T5, TCE-26 (anti-CD3 scFv W233A; anti-TROP2 HC wt); assay: competition ELISA, TCE on captured CD3
T5 construct: scFv on the Fab heavy chain; also called TCE-26 (W233A)

[7] = target: T6, TCE-14 (anti-CD3 scFv F104A; anti-TROP2 wt); assay: competition ELISA, TCE on captured CD3
T6 construct: scFv on the Fab heavy chain; also called TCE-14 (F104A)

[8] = target: T7, TCE-20 (anti-CD3 scFv S110A; anti-TROP2 wt); assay: competition ELISA, TCE on captured CD3
T7 construct: scFv on the Fab heavy chain; also called TCE-20 (S110A)

[9] = target: T8, TCE-11 (anti-CD3 scFv H101A; anti-TROP2 wt); assay: competition ELISA, TCE on captured CD3
T8 construct: scFv on the Fab heavy chain; also called TCE-11 (H101A)

[10] = target: T9, TCE-1 (anti-CD3 scFv wt; anti-TROP2 Fab wt); assay: competition ELISA: peptide titrated and pre-incubated with a constant concentration of TCE-1, binding of TCE-1 to plate-bound biotinylated CD3 detected
T9 construct: anti-CD3 scFv fused to the N-terminus of the anti-TROP2 Fab heavy chain; also called TCE-1 (wt)

[11] = target: T10, Human TROP2 Full length (human, UniProt P09758 31-323); assay: cell-based or functional assay
T10 sequence: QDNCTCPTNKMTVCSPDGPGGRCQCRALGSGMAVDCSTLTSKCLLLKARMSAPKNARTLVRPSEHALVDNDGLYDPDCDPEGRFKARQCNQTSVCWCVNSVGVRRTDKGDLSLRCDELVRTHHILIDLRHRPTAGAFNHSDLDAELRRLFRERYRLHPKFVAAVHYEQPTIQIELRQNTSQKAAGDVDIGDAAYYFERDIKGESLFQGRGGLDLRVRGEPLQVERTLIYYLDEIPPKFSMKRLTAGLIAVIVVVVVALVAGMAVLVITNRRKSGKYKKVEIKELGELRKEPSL

[12] = target: T11, Peptide-70 (cysteine pairing not given here; also: biotinylated, site not given here); assay: ELISA, TCE on captured biotin-peptide
T11 construct: mask peptide for the CD3 scFv
T11 peptide: YLCGPDGDETLACY

[13] = target: T12, Peptide-76 (cysteine pairing not given here; also: biotinylated, site not given here); assay: ELISA, TCE on captured biotin-peptide
T12 construct: mask peptide for the CD3 scFv
T12 peptide: YLCGPDADETLACY

[14] = target: T13, Peptide-77 (cysteine pairing not given here; also: biotinylated, site not given here); assay: ELISA, TCE on captured biotin-peptide
T13 construct: mask peptide for the CD3 scFv
T13 peptide: YLCGPDTDETLACY

B1: Peptide-22 (peptide)
peptide: VDFCTIYKWPVCEG
B1: binds [1].

B2: Peptide-19 (peptide)
peptide: PDFCQLYNWPVCAG
B2: binds [1].

B3: PC-7 (bispecific antibody)
light: not shown
heavy: GGVDFCGLYHWPICYQGGGGSGGLSGRSDAGSPLGLAGSGGSQVQLQQSGSELKKPGASVKVSCKASGYTFTNYGMNWVKQAPGQGLKWMGWINTYTGEPTYTDDFKGRFAFSLDTSVSTAYLQISSLKADDTAVYFCARGGFGSSYWYFDVWGQGSLVTVSSASTKGPSVFPLAPSSKSTSGGTAALGCLVKDYFPEPVTVSWNSGALTSGVHTFPAVLQSSGLYSLSSVVTVPSSSLGTQTYICNVNHKPSNTKVDKKVEPKSC
notes: anti-TROP2 wt
Work on B3 yielded an EC50 [2] of 24.6 nM.

B4: PC-6 (bispecific antibody)
light: GGVDFCGLYHWPICYQGGGGSGGLSGRSDAGSPLGLAGSGGSDIQLTQSPSSLSASVGDRVSITCKASQDVSIAVAWYQQKPGKAPKLLIYSASYRYTGVPDRFSGSGSGTDFTLTISSLQPEDFAVYYCQQHYITPLTFGAGTKVEIKRTVAAPSVFIFPPSDEQLKSGTASVVCLLNNFYPREAKVQWKVDNALQSGNSQESVTEQDSKDSTYSLSSTLTLSKADYEKHKVYACEVTHQGLSSPVTKSFNRGEC
heavy: not shown
notes: anti-TROP2 wt
With B4 the EC50 [2] was 32.9 nM and the EC50 [3] was 16.6 nM.

B5: PC-28 (bispecific antibody)
light: GGIDFCMLYNWPICAGGGGGSGGLSGRSDAGSPLGLAGSGGSDIQLTQSPSSLSASVGDRVSITCKASQDVSIAVAWYQQKPGKAPKLLIYSASYRYTGVPDRFSGSGSGTDFTLTISSLQPEDFAVYYCQQHYITPLTFGAGTKVEIKRTVAAPSVFIFPPSDEQLKSGTASVVCLLNNFYPREAKVQWKVDNALQSGNSQESVTEQDSKDSTYSLSSTLTLSKADYEKHKVYACEVTHQGLSSPVTKSFNRGEC
heavy: not shown
notes: anti-TROP2 wt
For B5, the EC50 [3] was 25 nM.

B6: PC-29 (bispecific antibody)
light: GGVDFCGLYHWPICYQGGGGSGGLSGRSDAGSPLGLAGSGGSDIQLTQSPSSLSASVGDRVSITCKASQDVSIAVAWYQQKPGKAPKLLIYSASYRYTGVPDRFSGSGSGTDFTLTISSLQPEDFAVYYCQQHYITPLTFGAGTKVEIKRTVAAPSVFIFPPSDEQLKSGTASVVCLLNNFYPREAKVQWKVDNALQSGNSQESVTEQDSKDSTYSLSSTLTLSKADYEKHKVYACEVTHQGLSSPVTKSFNRGEC
heavy: not shown
notes: anti-TROP2 wt
With B6 the EC50 [3] was 16.3 nM.

B7: PC-5 (bispecific antibody)
light: GGIDFCMLYNWPICAGGGGGSGGLSGRSDAGSPLGLAGSGGSDIQLTQSPSSLSASVGDRVSITCKASQDVSIAVAWYQQKPGKAPKLLIYSASYRYTGVPDRFSGSGSGTDFTLTISSLQPEDFAVYYCQQHYITPLTFGAGTKVEIKRTVAAPSVFIFPPSDEQLKSGTASVVCLLNNFYPREAKVQWKVDNALQSGNSQESVTEQDSKDSTYSLSSTLTLSKADYEKHKVYACEVTHQGLSSPVTKSFNRGEC
heavy: not shown
notes: anti-TROP2 wt
Work on B7 yielded an EC50 [2] of 24.5 nM and an EC50 [3] of 9.15 nM.

B8: Peptide-65 (peptide)
peptide: QGCGTIADPEPHCW
modifications: cysteine pairing not given here; also: biotinylated, site not given here
notes: mask peptide for the CD3 scFv
In the case of B8, the IC50 [4] is reported as 17700 nM, the IC50 [5] is reported as 620 nM and the IC50 [6] is reported as 2640 nM. For the same binder, the IC50 [7] was 6460 nM, the IC50 [8] was 6540 nM and the IC50 [9] was 85000 nM. For the same binder, the “IC50 (read off the curve)” value [10] was about 2000 nM.

B9: TCE-2 (bispecific antibody)
light: not shown
heavy: QVQLQQSGSELKKPGASVKVSCKASGYTFTNYGMNWVKQAPGQGLKWMGWINTYTGEPTYTDDFKGRFAFSLDTSVSTAYLQISSLKADDTAVYFCARGGFGSSYWYFDVWGQGSLVTVSSASTKGPSVFPLAPSSKSTSGGTAALGCLVKDYFPEPVTVSWNSGALTSGVHTFPAVLQSSGLYSLSSVVTVPSSSLGTQTYICNVNHKPSNTKVDKKVEPKSC
In the case of B9, the EC50 [2] is reported as 0.13 nM.

B10: Peptide-23 (peptide)
peptide: VDFCYQYGWPICSR
B10: binds [1].

B11: Peptide-21 (peptide)
peptide: IDFCSLYQWPVCGT
B11: binds [1].

B12: TCE-39 (bispecific antibody)
light: DIQLTQSPSSLSASVGDRVSITCKASQDVSIAVAWYQQKPGKAPKLLIYSASYRYTGVPDRFSGSGSGTDFTLTISSLQPEDFAVYYCQQHYITPLTFGAGTKVEIKRTVAAPSVFIFPPSDEQLKSGTASVVCLLNNFYPREAKVQWKVDNALQSGNSQESVTEQDSKDSTYSLSSTLTLSKADYEKHKVYACEVTHQGLSSPVTKSFNRGEC
heavy: EVQLVESGGGLVQPGGSLKLSCAASGFTFNKYAMNWVRQASGKGLEWVGRIRSKYNNYATYYADSVKDRFTISRDDSKNTAYLQMNSLKTEDTAVYYCVRHGNFGNSYISYWAYWGQGTLVTVSSGGGGSGGGGSGGGGSQTVVTQEPSFSVSPGGTVTLTCRSSTGAVTSGNYANWVQQTPGQAPRGLIGGTKFLAPGVPDRFSGSILGNKAALTITGAQADDESDYYCVLWYSNRWVFGGGTKLTVLGGGGSQVQLQQSGSELKKPGASVKVSCKASGYTFTNYGMNWVKQAPGQGLKWMGWINTYTGEPTYTDDFKGRFAFSLDTSVSTAYLQISSLKADDTAVYFCARGGFGSSYWYADVWGQGSLVTVSSASTKGPSVFPLAPSSKSTSGGTAALGCLVKDYFPEPVTVSWNSGALTSGVHTFPAVLQSSGLYSLSSVVTVPSSSLGTQTYICNVNHKPSNTKVDKKVEPKSC
In the case of B12, the “HCT116 Cytotoxicity EC50 (pM)” value [11] is reported as 73.2 pM.

B13: TCE-7 (anti-CD3 scFv wt; anti-TROP2 F108A) (bispecific antibody)
light: DIQLTQSPSSLSASVGDRVSITCKASQDVSIAVAWYQQKPGKAPKLLIYSASYRYTGVPDRFSGSGSGTDFTLTISSLQPEDFAVYYCQQHYITPLTFGAGTKVEIKRTVAAPSVFIFPPSDEQLKSGTASVVCLLNNFYPREAKVQWKVDNALQSGNSQESVTEQDSKDSTYSLSSTLTLSKADYEKHKVYACEVTHQGLSSPVTKSFNRGEC
heavy: not shown
notes: scFv on the Fab heavy chain
B13 showed an EC50 [12] of 0.4 nM, an EC50 [13] of 4.56 nM and an EC50 [14] of 63.2 nM.

B14: TCE-49 (bispecific antibody)
light: DIQLTQSPSSLSASVGDRVSITCKASQDVSIAVAWYQQKPGKAPKLLIYSASYRYTGVPDRFSGSGSGTDFTLTISSLQPEDFAVYYCQQHYITPLTFGAGTKVEIKRTVAAPSVFIFPPSDEQLKSGTASVVCLLNNFYPREAKVQWKVDNALQSGNSQESVTEQDSKDSTYSLSSTLTLSKADYEKHKVYACEVTHQGLSSPVTKSFNRGEC
heavy: not shown
With B14 the “H292 Cytotoxicity EC50 (pM)” value [11] was 3.9 pM.

B15: TCE-37 (anti-CD3 scFv F104A; anti-TROP2 F108A) (bispecific antibody)
light: DIQLTQSPSSLSASVGDRVSITCKASQDVSIAVAWYQQKPGKAPKLLIYSASYRYTGVPDRFSGSGSGTDFTLTISSLQPEDFAVYYCQQHYITPLTFGAGTKVEIKRTVAAPSVFIFPPSDEQLKSGTASVVCLLNNFYPREAKVQWKVDNALQSGNSQESVTEQDSKDSTYSLSSTLTLSKADYEKHKVYACEVTHQGLSSPVTKSFNRGEC
heavy: not shown
notes: scFv on the Fab heavy chain
B15 showed an EC50 [12] of 0.34 nM, an EC50 [13] of 1.44 nM and an EC50 [14] of 9.21 nM.

B16: Peptide-16 (peptide)
peptide: IDFCLLYDWPVCAS
In the case of B16, the “IC50 (read off the curve)” value [1] is reported as about 3000 nM.
